The experiment deals with T1, RANBP17^1-252, GAL4 DNA binding domain fusion (pM) (human (cDNA library of DU145 cells), UniProt Q9H2T7 1-252).
T1 sequence (looked up): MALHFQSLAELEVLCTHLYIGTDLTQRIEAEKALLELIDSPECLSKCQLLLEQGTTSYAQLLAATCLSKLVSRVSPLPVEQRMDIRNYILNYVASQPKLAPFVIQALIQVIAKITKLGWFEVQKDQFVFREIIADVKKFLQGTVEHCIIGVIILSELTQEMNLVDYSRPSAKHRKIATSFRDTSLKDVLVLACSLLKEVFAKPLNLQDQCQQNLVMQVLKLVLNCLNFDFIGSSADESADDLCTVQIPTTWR
Briefly: two-hybrid.

Experimental findings from article PMC2930062 (Journal of cellular biochemistry, 2010) are described below.

B1: E12^508-654, VP16 activation domain fusion (pVP16) (domain or fragment, human, UniProt P15923 508-654, looked up)
chain: TSAADHSEEEKKELKAPRARTSPDEDEDDLLPPEQKAEREKERRVANNARERLRVRDINEAFKELGRMCQLHLNSEKPQTKLLILHQAVSVILNLEQQVRERNLNPKAACLKRREEEKVSGVVGDPQMVLSAPHPGLSEAHNPAGHM
Regarding B1, the “fold increase in luciferase activity against empty vector transfectants” value worked out at 5.7 fold.
